Experimental data: US20240352105A1, “COMPOSITIONS AND METHODS FOR NEUTRALIZING ANTIGENS” (PACAGEN, INC, priority 2023, published 2024)
Values joined by “and” are separate entries in the source; they are usually repeats but may differ in a detail not shown here. Identical values can stand only once.

What was measured:
[1] = system: biotinylated anti-His antibody; test: Recombinant Can f1-His ELISA binding assay
Procedure: (§1) In order to obtain single variable domain on heavy chain, i.e., VHH, specific for dog allergen Can f1, a recombinant His-tagged Can f1 was prepared, which reached high purity, as shown via SDS-Page Western blotting in FIG. 4. To confirm this, an ELISA was performed measuring optical density when the recombinant Can f1-His is incubated with a biotinylated anti-His antibody. As summarized in Table 4, the recombinant Can f1-His was effectively bound by the antibody.

[2] = system: known Der p2 antibody (clone 6OY4); test: Recombinant Der p2-His ELISA binding assay
Procedure: In order to obtain single variable domain on heavy chain, i.e., VHH, specific for dust mite allergen Der p2, a recombinant His-tagged Der p2 was prepared, which reached high purity, as shown via SDS-Page Western blotting in FIG. 2. To confirm this, an ELISA was performed. Briefly, the Der p2-HIS was coated onto an ELISA plate and a known Der p2 antibody (clone 6OY4) was added. A secondary detection antibody capable of binding to the Der p2 antibody was then added. The secondary detection antibody was conjugated to a horseradish peroxidase, which can be utilized to produce a colorimetric reaction. Then, optical density was measured. As summarized in Table 1, the recombinant Der p2-His was effectively bound by the antibody.

[3] = target: T1, recombinant His-tagged Can f1 (dog (Canis familiaris), UniProt O18873 19-174); test: ELISA, antigen coated
T1 construct: also called Can f1-His; recombinant Can f1; not shown: His tag
Procedure: (§2) 2 microgram per milliliter (μg/mL) target antigen is coated in a 96-well plate and ELISA assay is performed after incubation with candidate VHHs. The binding EC50 of each clone is calculated using Prism GraphPad. The positive control antibody is involved as an internal control.
(§3) Isolated VHH clones were further validated by performing an ELISA assay as described in Example 1. Metrics of thermostability including melting temperature (Tₘ), onset temperature (Tₒₙₛₑₜ), and temperature of aggregation (Tagg), were also tested with increasing temperature in the range of 20° C.-95° C. at the speed of 1° C./min. The individual binding curves are shown for each candidate in FIGS. 5B-5H.

[4] = Thermostability (Tm, Tonset, Tagg) by Nanotemper DSF; assay type: physicochemical; set-up: key to Tm2 / Tagg / Tm1 / Tm / Tm3 / Tonset / Tonset ø (mean) / Tagg ø (mean): temperatures in °C; details: anti-Can f1 VHH; for Tagg: 20° C.-95° C. at 1° C./min
Procedure: as §3, with “(Tm),” for “(Tₘ),”, “(Tonset),” for “(Tₒₙₛₑₜ),”, “C./min. These measurements were performed using a Nanotemper DSF. When applicable, Tm1 refers to the first melting point observed, Tm2 refers to the second melting point observed, etc., Sequence information for the VHH clones and the binding assay results are summarized in Table 3.” for “C./min.”, “3B-3I.” for “5B-5H.”
as §3, with “(Tm),” for “(Tₘ),”, “(Tonset),” for “(Tₒₙₛₑₜ),”
as §3, with “(Tm),” for “(Tₘ),”, “(Tonset),” for “(Tₒₙₛₑₜ),”, “7B-7P.” for “5B-5H.”
The detailed thermostability graphs used to determine the Tm, Tonset, and Tagg are illustrated in FIGS. 19A-19I and raw data is summarized in Table 23. Any subsequent melting points observed (Tm1, Tm2, Tm3, etc.) are separated by commas.

[5] = system: biotinylated anti-His antibody; test: Recombinant Can f2-His ELISA binding assay
Procedure: as §1, with “f2,” for “f1,”, “f2” for “f1”, “6.” for “4.”, “f2-His” for “f1-His”, “7,” for “4,”

[6] = target: T2, recombinant His-tagged Der p1 (dust mite, UniProt P08176 99-320, limits assumed); test: ELISA, antigen coated on plate
T2 construct: Recombinant His-tagged protein made by the applicant; also called Der p1-His; Der pl; not shown: His tag
T2 sequence (looked up): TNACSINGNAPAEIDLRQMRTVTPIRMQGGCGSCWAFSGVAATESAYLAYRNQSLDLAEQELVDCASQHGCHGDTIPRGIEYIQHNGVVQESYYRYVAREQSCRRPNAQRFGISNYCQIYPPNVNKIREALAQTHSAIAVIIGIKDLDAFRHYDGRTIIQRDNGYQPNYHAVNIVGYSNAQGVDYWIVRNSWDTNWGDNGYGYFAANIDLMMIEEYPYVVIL
Procedure: as §2
Isolated VHH clones were further validated by performing an ELISA assay as described in Example 1. The individual binding curves are shown for each candidate in FIGS. 9A-9K.

[7] = target: T2, recombinant His-tagged Der p1; test: cell-based or functional assay

T1 sequence (O18873 19-174 limits assumed): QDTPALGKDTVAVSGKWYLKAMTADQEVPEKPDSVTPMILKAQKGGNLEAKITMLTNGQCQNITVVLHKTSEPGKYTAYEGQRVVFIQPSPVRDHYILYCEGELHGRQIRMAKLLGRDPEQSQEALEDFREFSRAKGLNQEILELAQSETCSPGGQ

## Can f1-His: recombinant His-tagged dog allergen Can f1
[1]; Can f1-His Concentration 0.00064 μg/mL
  OD at 450 nm: 0.07 and 0.11
[1]; Can f1-His Concentration 0.0032 μg/mL
  OD at 450 nm: 0.09 and 0.11
[1]; Can f1-His Concentration 0.016 μg/mL
  OD at 450 nm: 0.09 and 0.12
[1]; Can f1-His Concentration 0.08 μg/mL
  OD at 450 nm: 0.15 and 0.16
[1]; Can f1-His Concentration 0.4 μg/mL
  OD at 450 nm: 0.21 and 0.24
[1]; Can f1-His Concentration 2 μg/mL
  OD at 450 nm: 0.95 and 1.03
[1]; Can f1-His Concentration 10 μg/mL
  OD at 450 nm: 2.84 and 2.92

B1: Der p2-His: recombinant His-tagged dust mite allergen Der p2 (protein)
chain: DQVDVKDCANHEIKKVLVPGCHGSEPCIIHRGKPFQLEAVFEANQNTKTAKIEIKASIDGLEVDVPGIDPNACHYMKCPLVKGQQYDIKYTWNVPKIAPKSENVVVTVKVMGDDGVLACAIATHAKIRD
modifications: left off: small tags and cut ends
[2]; Der p2-His Concentration 0.00064 μg/mL
  OD at 450 nm: 0.07 and 0.09
[2]; Der p2-His Concentration 0.0032 μg/mL
  OD at 450 nm: 0.09 and 0.10
[2]; Der p2-His Concentration 0.016 μg/mL
  OD at 450 nm: 0.11 and 0.12
[2]; Der p2-His Concentration 0.08 μg/mL
  OD at 450 nm: 0.38 and 0.35
[2]; Der p2-His Concentration 0.4 μg/mL
  OD at 450 nm: 1.31 and 1.37
[2]; Der p2-His Concentration 2 μg/mL
  OD at 450 nm: 4.06 and 4.02
[2]; Der p2-His Concentration 10 μg/mL
  OD at 450 nm: 4.61 and 4.57

B2: SDAB22112-2-D08 (VHH)
VHH: QVKLEESGGGLVQAGGSLRLSCVASGRTFSRWHTGWYRQAPGREREFVATLRASGGDTYYADSVKGRFTISRDNAKNTVYLQMNSLKPEDTAVYYCNVWANWGAPPSDFSSWGQGTQVTVSS
notes: anti-Can f1 alpaca VHH
[3]
  EC50: 5.84 µg/mL

B3: SDAB22112-1-C10 (VHH)
VHH: QLQLVESGGGLVQPGGSLRLSCAASGFTFSSYSMSWYRQAPGKERELVATIDTDGRTNYADSVKGRFTISRDNAKNSVYLQMNSLKPEDTAVYYCNRRQLGVDYWGQGTQVTVSS
notes: anti-Can f1 alpaca VHH
[3]
  EC50: 9.4 µg/mL

B4: SDAB22112-2-B06 (VHH)
VHH: QVQLVESGGGLVQPGGSLRLSCAASGFTFRLAAMGWYRQAPEKEREWVASITGPGTDTNYADSVKGRFTVSRDNAKNTVYLQMNSLKPEDTAVYYCRGMGYWGKGTLVTVSS
notes: anti-Can f1 alpaca VHH
[3]
  EC50: 0.144 µg/mL
[4]
  Tagg: 48.00
[4]; first melting point, in °C (unit assumed)
  Tm1: 56.38
[4]; second melting point, in °C (unit assumed)
  Tm2: 63.74
[4]; third melting point, in °C (unit assumed)
  Tm3: 70.13

B5: Can f2-His: recombinant His-tagged dog allergen Can f2 (protein)
chain: QEGNHEEPQGGLEELSGRWHSVALASNKSDLIKPWGHFRVFIHSMSAKDGNLHGDILIPQDGQCEKVSLTAFKTATSNKFDLEYWGHNDLYLAEVDPKSYLILYMINQYNDDTSLVAHLMVRDLSRQQDFLPAFESVCEDIGLHKDQIVVLSDDDRCQGSRD
modifications: left off: small tags and cut ends
[5]; Can f2-His Concentration 0.00064 μg/mL
  OD at 450 nm: 0.10 and 0.11
[5]; Can f2-His Concentration 0.0032 μg/mL
  OD at 450 nm: 0.11
[5]; Can f2-His Concentration 0.016 μg/mL
  OD at 450 nm: 0.10 and 0.11
[5]; Can f2-His Concentration 0.08 μg/mL
  OD at 450 nm: 0.12 and 0.13
[5]; Can f2-His Concentration 0.4 μg/mL
  OD at 450 nm: 0.22 and 0.19
[5]; Can f2-His Concentration 2 μg/mL
  OD at 450 nm: 0.57 and 0.65
[5]; Can f2-His Concentration 10 μg/mL
  OD at 450 nm: 1.12 and 1.07

B6: SDAB22129-55-35-46-49-1-D01 (VHH)
VHH: QVQLVESGGGLVQAGGSLRLSCAASGRTFSRYAMGWFRQAPGKEREFVAAITGSGSRTYYADSIQGRFTISRDNAKNTVYLQMNSLKPEDTAVYYCVQGWAEATMTSLGEDYDYWGQGTQVTVSS
notes: Expressed from a prokaryotic vector
[6]
  EC50: 0.0147 µg/mL
[7]
  Maximum Rate of Blocking: 73

B7: SDAB22129-55-35-46-49-1-B02 (VHH)
VHH: QLQLVESGGGLVQSGGSLRLSCVAKGGTNHPYPIGWFRQAPGKEQEGVLCIASGGQTQDSAHNPNWADSVKGRFTISRDDATHTVYLEMNNLKADDTAVYFCAAPREIYIDSRCATYKYEYWGQGTQVTVSP
notes: as for B6
[6]
  EC50: 0.0193 µg/mL
[7]
  Maximum Rate of Blocking: 75.4

B8: SDAB22112-1-D12 (VHH)
VHH: AVQLVDSGGGLVQAGGSLRLACAASGRTFDTYAVGWFRQAPGKERDVVASITWTSGSTWYADFVKGRFTISKDNAKNTVYLQMNNLSPEDTAVYYCGARNQIYTRWDSWGQGTQVTVSS
notes: anti-Can f1 alpaca VHH
[3]
  EC50: 4.01 µg/mL
[4]
  Tagg: 49.15
[4]; single melting point, in °C (unit assumed)
  Tm: 57.78

B9: SDAB22112-1-C9 (VHH)
VHH: QLQLVESGGGLVQPGGSLRLSCVGSGFTFSLASMGWYRQAPGKEREWVASISSLDASTNYADSVKGRFTISRDNAKRMVYLQMNNLKSEDTAVYYCKAMNYWGKGTQVTVSS
notes: anti-Can f1 alpaca VHH
[3]
  EC50: 13.1 µg/mL

B10: SDAB22112-1-B6-B05 (VHH)
VHH: QLQLVESGGGLVQPGGSLRLSCAASRSIFSSYVMAWYRRAPGKKRELVASIANVGSNTDYASFAKGRFTISRDDDKSRDNDKITVYLQMNSLNPEDTAVYYCNAWLGAGSDYWGQGTQVTVSS
notes: anti-Can f1 alpaca VHH
[3]
  EC50: 8.42 µg/mL

B11: SDAB22112-1-D12-3 (VHH)
VHH: QVQLVESGGGLVQPGGSLRLSCAASGFTFSNYGMSWVRQAPGKGLEWVSDVNSSGSRRFYVDSVKGRFTISRDNAKNTVFLQMNSLKPEDSAVYYCVKLAEAGTLIHVGSWGQGTRVTVSS
notes: anti-Can f1 alpaca VHH
[3]
  EC50: 10.4 µg/mL

B12: SDAB22129-55-35-46-49-1-B12 (VHH)
VHH: QVQLVESGGGLVQAGGPLRLSCAASGRTFSSYAMGWFRQAPGKEREFVAAISWSGDSTYYADSVKGRFTLSRDNAKNTVYLQMNSLKPEDTAVYYCAVPSSGRGTYYYTLSAYEYWGQGTQVTVFS
notes: as for B6
[6]
  EC50: 1.77 µg/mL
[7]
  Maximum Rate of Blocking: 95.4
